These results are taken from paper PMC5360445, “SMOC can act as both an antagonist and an expander of BMP signaling” (eLife, 2017).

Data set [1] addresses recombinant mature XSMOC-1 (Xenopus SMOC-1) (Xenopus). The data set can be described thus: SEC; HiLoad Superdex-200 PG, 20 mM Tris/HCl pH 7.5, 300 mM NaCl, 2 mM CaCl2, 10% glycerol; proteins refolded in the presence of 2 mM CaCl2; molecular weights calculated from elution.
The target is the same in data set [2]. The data set is described as follows: SEC; XSMOC-1 refolded in the presence of 2 mM CaCl2, then dialysed in the presence of 10.5 mM EDTA. A general note: SEC sorts molecules by how far they enter the pores of the column.
Data set [3] has the same target. The data set can be described thus: not stated; data not shown; in the presence of 50 mM EDTA and 1 mM nitriloacetic acid.
For data set [4], the target named is XSMOC-1∆EC (XSMOC-1 lacking the EC domain) (Xenopus). The data set can be described thus: SEC; HiLoad Superdex-200 PG, 20 mM Tris/HCl pH 7.5, 300 mM NaCl, 2 mM CaCl2, 10% glycerol; proteins refolded in the presence of 2 mM CaCl2; molecular weights calculated from elution.
Data set [5] deals with the molecule itself. The description is as above.

Turning to “recombinant mature XSMOC-1 (Xenopus SMOC-1) (natural protein)”, the stoichiometry N in data set [1], in data set [2] and in data set [3] was 2 throughout.

With “XSMOC-1∆EC (XSMOC-1 lacking the EC domain) (domain or fragment)”, in data set [4], the stoichiometry N is 2.

B1: human SMOC-1 (natural protein, UniProt Q9H4F8 27-434, looked up)
chain: HRTTGPRFLISDRDPQCNLHCSRTQPKPICASDGRSYESMCEYQRAKCRDPTLGVVHRGRCKDAGQSKCRLERAQALEQAKKPQEAVFVPECGEDGSFTQVQCHTYTGYCWCVTPDGKPISGSSVQNKTPVCSGSVTDKPLSQGNSGRKDDGSKPTPTMETQPVFDGDEITAPTLWIKHLVIKDSKLNNTNIRNSEKVYSCDQERQSALEEAQQNPREGIVIPECAPGGLYKPVQCHQSTGYCWCVLVDTGRPLPGTSTRYVMPSCESDARAKTTEADDPFKDRELPGCPEGKKMEFITSLLDALTTDMVQAINSAAPTGGGRFSEPDPSHTLEERVVHWYFSQLDSNSSNDINKREMKPFKRYVKKKAKPKKCARRFTDYCDLNKDKVISLPELKGCLGVSKEGRLV
notes: human SMOC-1, construct pET28-SMOC-1-HT of Novinec et al., 2008; expected monomeric size 46.6 kDa; probably the protein without its signal peptide; also called hSMOC-1; pET28-SMOC-1-HT
As to B1, the “stoichiometry N” value in data set [5] was 2.

The term stoichiometry N denotes the number of molecules, sites or subunits per partner or assembly.
